Among the data in the NTF2 design screens of Basanta et al. (2020) are protease stability score values, retold here.

The series is described as follows: protease stability score; higher = more stable; yeast display proteolysis, trypsin and chymotrypsin.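 Also: relative to predicted unfolded state with 0 unfolded-like and 1 meaning tenfold more protease.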
Take “DEEEKEMRELFHHIIRLIDTGDFDTLKQLADPNTQLHIGDKHSHGREEVVRMNRHWRYHDSKIRDSHVVNGVIHVDAESNLKFDGVRTVTHVRLILYVVDGRLKSLEIRIE”: the protease stability score was 0.44.
To “DDNTKHAHELVERWRHIIETGDEDIMEEMLDPNVRLLIGDKDLHGRETVEIWLRVLIRRFKNVRLESVHLESVEIQGNKAFSRVRVDLRYNGREDSMDVVVVVYKIDGRWRVHELSVH” belongs 1.77; to “SERDELVEKLMESALDFWRTGNEDLMERLLDPHVRLDINGREHHGREVVIKAFREIWMLLGIDHIDIHHVDIQGEYVHLDVRVKVNGKDTRSRIELIVVDGKITELIIRLR”, 2.51; to “DEDTKLAKEAWRHLMENLHTGNEEIILHLVDPNAKFRYGEFEHHGRESLKWFRKRYDHIEVTHVEFHHVQVQGDKLIYHGTLEMSFEQGNKHEHWEYNVLLISRKINGRWIVKSIEVN”, 0.953.
For “DEIEKSVKHHDQVFRTAIETGDEHELEHLADPNVRWDINGVDLHGRELYLKIVLEIRMRIELRVRDVRWQGNYIIVISEVDSHHHINGVETRDRSDAHLIIFKVNGRWELKESRRH” the value was 1.35.
For “DETTELAREAIELLVKSLRTGDWDTSSRLLDPHTRYHYGEFNSHGREMFIISLEFLWKHLRIEDVHITHIRSIGDKVDVDTVLRVNVNGQVVDVEFFIHAHKVNGKWLYTEIRVR” the value was 1.16; for “DEDKRHADRWVDELRRVMLTGDFDTYVEMLDPHVRIEVGDKVIHGREDLIKFMRERLDRLGYERVEIRIEVSDREKQGDKIELHGTLHLFIGDKEHTHKIRIWIRKVNGQWIAESERVQ”, 1.71.
On to “SDEERSIKILIDLYRLAQETGDERIMREYADPDMKLDIGDKRDHGWEVLVRMVRHLRFHEIHIEHFEVQGNKMHITVRIDTEVNGQRWILRAHIIVTKFNGKWRIEHREEE”, for which the protease stability score came out at 1.45.
For “SETEEEAERFEKILLHYRKTGNEDDLLNFIDPHVRIHQGDKEIHGRELYLELMRRWKEIAGHDFFFMNIHDVEIQGEKAIIDGRLFVNGVHHKIKVIFKKINGRWIVESEHIH” the value was 0.889; for “SEDEEMTRKYFERYIRWLVTGDPKLLSELVDPNVKLIYNGRHLHGREFLVEWEMEILREARLHSVHVRDVKLFNGRLRMDVEINIEIGDKKSVVESNIVALKVNGRWVLESYEVD”, 1.42.
In the case of “DEHEEEVREMHRVWVELLRTGDWRILAEMFDPNVRMHIGDKEHHGREAIEIHIEKFKNVRLEITRVHIQGEYIVIEGVINIDGKTHTLRFHFVLVNGRLKQYDEHSE”, the protease stability score stood at 2.
For “SEEEDKARHLFDRLVHAWHTGDWRELKHLLDPNAKFVLEYGDKKETYHGMDEEIRYLEELHKRVDHIHFLIRHVDIQGDKLRVEGELEYRVGDYERRIPTSYEVIVIDGRIHEIISRIH” the value was 2.11; for “DEDEEQLKEMWREFLEASRTGDEHRIKELADPNARLRQGDKRFHGREEFSRLIVEMRIRHIEIRRIRVVGDKIEITTELHVIYNGQHIEVDTHVIILKVNGRWSLTEMEER”, 0.905; for “NEDEEWIHKFWETLRKNIETGNEEEIEKLFDPNTRVEIGDKIIHGRRFIEHLKERADHVEEVHFQHKHIEIQGDKVQVHGELDHDIRIGDKRHRLRLDIIIILKKYNGRWHVHSFIIT”, 1.2.
To “DERTEHFREYREKVLESIETGDPRVIKEMLDPNAKVEIVIGEKNFDLHGREEVMRWYEEWVEKYKGMRIHINHVEVQGEKIIVDSELEVNGKSHKTDLIITAFNGVIKETRVEIN” belongs 1.06; to “SEHDELLNRLSELLTHLILTGDWKTFSELADPNVLAITDINGRTRHHHGREHFLNLLEELLREFGIDHLWITHIDAFNGVSHTHVNIEVNGRTHELRLHIVIIDGKVHEVHFSFK”, 0.34.
For “SEDEKMANEMLEIMMRNLITGNWEELSRLADPHVRIVINGVELHGRETINNYLHHLRIKRVHLNVTHIESIDGKVKSIGLLREHGEFNGKETETHTKVILIIQKVNGVWIVKEIRDE” the value was 1.4; for “DEHEQFLRDIAIILIHAHLTGDWKRLEEMLDPNVRFEIDINGRSIEQHGRELYLRWVRKIHNEIWFRIEIEDISVINGRASVKVRLDLNVGDKVLHTRIHIEVVVIDGVLRSESIRVR”, 2.69.
“TEDSKLITDVLRHFTEAFITGDEHTLKRMADPHVRTEWDGVHLHGWEKFLKFIVTEHRKLGIDHMRVEVDHIESYGDKIHVEGTLVVIINGQEISRHVELVMVKIDGVWLFKSRHFR” showed a protease stability score of 0.706.
In turn, “DEERELYKRHWDRLNRAIHTGDEEEVRRLADPDYKIRIGDKTLHGREDIKKFLEHIRISVESFEIKDMHDIDGVIEVDGKVELRLVVDGRTFRIETRVVYYILKVNGRWLMHSEIYH” returned a protease stability score of 0.82.
To “DDLEESLKHLLELIIQWIRTGDFHMLSQYADPDVKIHYNGREYIGREFFLQLMREMGANHFSVERIDFQGDKLHVEISFRVGDKETHTRVESWKFNGVWLLKHIEMR” belongs 0.463; to “DEERRRDEEDWRFLEHVWETGDFDALVNMIDPNVRIEFEGRTHHGREDASHLIKRLGVKYFEVKSQNIQGDYIIDDVEFRVGEYRTRVRIIIHKIDGKWYIHSLHIL”, 0.913.
To “DESMTEAKQILETLNKSLNTGDERLDKELFDPRAKLEFDGREIHGRELILTWLSEWRIEIKDFRIEDIEFQGNKVKMHTRIDMTVDFNGRRIKIDTTMHHDVIKVNGRWLIQRQIIP” belongs 1.12.
For “DHEDRLAEEIARFIYHYWETGDEEEISDLFDPHVRVEININGKRIEKVGREHFYHWFHYWRERFKNLKINFKRLDPVNGKVHVETRVHQGDKERRMILEFDVVNGRIRVFRMEVHEN” the value was 2.5.
Take “DEAQEIVEFVFKILAEFQETGDEDSLKHLLDPNVRILQGNKELHGRDQNIKRLREELDRFGVDKFRVELRLEHVTIIDGRLHLDMRLNLDVNGVEIRLEVHFVLIKVDGQWSIHEVRFH”: the protease stability score is 1.61.
For “DEDREHVKWMIEKEIHAWRTGDEDELRKMLDPNVKFEQGDKRIHGREILMERMRKLGADHVEFQLHDIELQGEKVLLFIELRIHVNGRDIRLEIIIYLDKVNGQWHVRHYEIR” the value was 0.745.
Consider “SEEEHRSELAVELVHYTLMTGDFHLIERLVDPNVKLRILIGDKEYDLHGWKEVYRFMVTFGFDHMELKTFDLQGDKLNIDLRLHVDGRNVETSIVALKVNGKWINESEHYRIK”, for which the protease stability score is 0.464.
To “TEDDELLHRAERLVYHSLLTGDFHTLKHLMDPHVRTHIDGRDTHGRDKATNFFIKYWEDLGVKHITYEDMHVHFFEGHLTVLLIVKLNIDGRERRNVYIFIFMKIDGKWLNHEVHIHIN” belongs 0.651; to “SEEEEIAHRFRKTVVHALLTGDEDRLRELVDPNYRILIGDKELHGWKSMSEFTHEWRIDHVEIERESVFDGVAHHDIRVDTTVNGKRDTRIVRIIIQKVNGKWVIHSMEIH”, 0.53.
To “DEDREIMERFIHILAEVWRTGDEHSLERLFDPNYKTLYDGRDVHGRETHIEILRTLGLERIEVRIKRFRVQGDKLHVNVELDVNGRTTEVEIRWRKIDGRWINHDMEIE” belongs 1.39.
To “HEEEHDLKEVIRLFLELIDTGDEDVLERLADPNMRVIQGDKTIHGREEVRRTMQEDAKRIDHFEFRLRRVRVINGRLEVDGEFIERAEGHEFRSRVNIMLVKVNGRWVLKIIELR” belongs 1.65; to “NEEFRDAQMAAHEFINVMETGDEHLLSRRLDPNMRVDINGREFHGWEQWVRIFREIRVKSIRYEEIRVQGDKVHLHTRLHVTIGDYEFTTETTIFIDKINGVWYIKEFHMN”, 0.253; to “SDQDHLTELAEHLFEYSLETGDEELMDKNFDPNMKLEVGEKHEHGRHVAETFSRRFDVVKSIEMKHVTTINGVAEIDGHIDGNFNGVDIRTDVRLVSLKIDGRWFIHSITFV”, 0.319.
Turning to “DEERKIVEKWANEFLQAQITGDEDWFREYADPTTRYNLHIGDYDLHLHGRELVLTFLHEILRKFKNIKIEIKRRNIQGEKTDIDGVENYNGVEHRVRIHLVVINGQLKSYTIKEH”, the protease stability score worked out at 0.604.
In the case of “REDEDAVREWALKFLESSLTGDEHFLKNLMDPHARLVIGDKHFHGREEVVRTWREFLTKFKNVRHDLHDINIQGDKVDVVENLVFDGVRTRTRITMRKVDGRWVITDIVIE”, the protease stability score stood at 2.08.
For “DSHEETNKFFFELTTHALETGDFDFLKKLADPHVRLNIDGRDTIGMDFLLRLWRELGFKHQHLKDMKIYGNWTYLDMHLHFNGREHDIHLNFKIFNGQMESIDVHIR” the value was 1.32.
To “THEWREAREMIEVFLERIETGDEESLERLLDPHVRVHINGKDFHGRDEAIRKLIEMRHHSIHLKHINVQGDKVHNFGEWIVDFDGKKHTHKMILYISKVNGRWLIDSIHVE” belongs 0.98; to “DETKQETDRLVKMMLHAITTGDEKFIHHLIDPNVRLEVGDKSFHGREDAFEMLRKEWEDLGVKVYKPETYKSQGDWVHFHGKEHVGDKEIELNIHIHVVDGKIKFIRIEIH”, 1.2.
For “DEEEKRWRHMTHLFWHIEKTGNEDRLSKLADPDVRLNINGVHAHGREEVISVLREFQERYKNLTIHIKDIKVFDGVVFIDGEDHFDGVTVKSLVIIFIVNGRIKEIEHRRE”, the protease stability score stood at 1.62.
“SEVEESIEHAREIVTEVIKTGDEHHLNRLADPNTRVVFDGKDLHGRERLEEVLREMGVNHIEIKDMKYDSQGNKVHIDIDGRVNVGEKSHNTHLHWIVEKVNGRWLLSSIIIIIR” yielded a protease stability score of 0.886.
To “DHEDDEFDFAIELWVTIMKTGDEEFLERYVDPHARLIVGDKRFHGREVIEFMLRRIDVLDRIEVEHRQSVNGRMIIHQHLHHAIDGRRNEVRMRVVVHKVDGRWDLDELQFD” belongs 1.36; to “DELTEILKHAVERLLRHIVTGDEDSVSELADPNVKVDFNGQEYHGMHFFSHLASRFKGLRLELTELHSVGNYMDTRMHVEVNGKNIELILHSKKVNGKWSLERSEFH”, 1.26.
The sequence “SEEHDKLQRLIRQWWSEFETGDEDKLTEMFDPHARLHIDGRDVIGRENVSKFVFDFFFEMRIHRTHIEHVDAQGDFLILHYHVRGTVNGRESDIHVLIIFTVVNGRMKSVHVHNE” registered a protease stability score of 1.38.
For “NDLEERTKKAAEELREMHKTGDEELWLKNMDPNVRLEIIIGDKLLIFHGREKWREWFHKYKNARHEDNDEHVQGDKTRINVHIVFNGRRVDVEITLRVIDGRVHSEHINII” the value was 1.45.
For “SEEEENSRLLVELYFRWLVTGNEEVHNKYLDPNMRLEIRIGDKTIETHGREEILRAMREWRIRHVELKDRHVQGDKAHIEGTIIIEFDGRDIERHLNIIIVVINGRIHEIQLHVR” the value was 2.79; for “DEEERYIIEMLRILAEAILTGDEDETHNQLDPDVRIEWNGVELHGRDELLRFMHHLRIDIKRVEFRSITKVDGRVHTDGLLDVTYFIDGRVFRRRTHTELIILKVDGRWTFHSIKID”, 2.19.
Sequence “SEEEELWRLAEETSERIIRTGDFTRLEEMIDPDARMHIDGRTHHGRETISKILLHELTRIKNVKFEIKHKSSQGDWVDIDLILRFDGKTEHIRYYVYKINGQWFLHSIEYH” came in with a protease stability score of 1.19.
